T1: co-expressed Kae1-Pcc1 subcomplex (2Kae1:2Pcc1) (Saccharolobus islandicus REY15A, UniProt F0NFC9 1-331; F0NF65 1-91)
T1 sequence (looked up) 1: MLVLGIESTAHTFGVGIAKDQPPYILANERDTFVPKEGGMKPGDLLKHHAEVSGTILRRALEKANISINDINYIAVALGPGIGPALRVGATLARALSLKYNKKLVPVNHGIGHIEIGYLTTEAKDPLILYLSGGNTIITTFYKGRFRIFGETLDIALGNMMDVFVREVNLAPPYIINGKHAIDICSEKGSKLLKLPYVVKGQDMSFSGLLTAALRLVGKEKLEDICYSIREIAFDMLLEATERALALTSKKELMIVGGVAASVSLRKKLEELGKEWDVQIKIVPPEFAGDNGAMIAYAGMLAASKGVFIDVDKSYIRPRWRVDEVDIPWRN
T1 sequence (looked up) 2: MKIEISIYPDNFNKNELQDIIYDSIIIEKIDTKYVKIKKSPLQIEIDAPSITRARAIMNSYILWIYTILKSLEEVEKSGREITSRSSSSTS

T2: His-Pcc1 co-expressed with no-tagged SisKae1 (Saccharolobus islandicus REY15A, UniProt F0NF65 1-91)
T2 sequence (looked up): T1 sequence (looked up) 2

B1: His-SisPcc1-like (natural protein, Saccharolobus islandicus REY15A, UniProt F0NIH8 1-81, looked up)
chain: MIELRILSEHEDAELIIRSLNVDNVNLPEGMSIQTKVEGKELEIVIKMRITKPNDLMTVRNTADEILAHIKALQSSFDAIS
B2: no-tagged SisKae1 (enzyme, Saccharolobus islandicus REY15A, UniProt F0NFC9 1-331, looked up)
chain: T1 sequence (looked up) 1

Key:
Assay in all cases: SEC
[1] = molecular target: Flag-tagged SisKae1 co-expressed with His-tagged SisPcc1-like (Saccharolobus islandicus REY15A)
no-tagged SisKae1 = molecular target: B2
[2] = molecular target: T1, co-expressed Kae1-Pcc1 subcomplex …
[3] = molecular target: T2, His-Pcc1 co-expressed with no-tagged …

stoichiometry N (Pcc1-like per Kae1) [1]	stoichiometry N (no-tagged SisKae1)	stoichiometry N [2]	stoichiometry N [3]	Binder
2	1 Kae1:Pcc1-like (1:1)	1 Kae1:Pcc1:Pcc1-like (1:1:1)	–	B1
–	–	–	1 Kae1:Pcc1 (2:2)	B2

— paper doi:10.1101/2022.08.26.505501 (bioRxiv, 2022)
